Assay results published in paper PMC9812531 (Nature structural & molecular biology, 2021).
Where two headings read alike, the source gives them in different places.

Key:
Test in all cases: cryo-EM structure
human SPTLC2 = target: T1, human SPTLC2 (human, UniProt O15270 1-562, pyridoxal 5'-phosphate (PLP) in aldimine linkage to Lys379)
T1 sequence (looked up): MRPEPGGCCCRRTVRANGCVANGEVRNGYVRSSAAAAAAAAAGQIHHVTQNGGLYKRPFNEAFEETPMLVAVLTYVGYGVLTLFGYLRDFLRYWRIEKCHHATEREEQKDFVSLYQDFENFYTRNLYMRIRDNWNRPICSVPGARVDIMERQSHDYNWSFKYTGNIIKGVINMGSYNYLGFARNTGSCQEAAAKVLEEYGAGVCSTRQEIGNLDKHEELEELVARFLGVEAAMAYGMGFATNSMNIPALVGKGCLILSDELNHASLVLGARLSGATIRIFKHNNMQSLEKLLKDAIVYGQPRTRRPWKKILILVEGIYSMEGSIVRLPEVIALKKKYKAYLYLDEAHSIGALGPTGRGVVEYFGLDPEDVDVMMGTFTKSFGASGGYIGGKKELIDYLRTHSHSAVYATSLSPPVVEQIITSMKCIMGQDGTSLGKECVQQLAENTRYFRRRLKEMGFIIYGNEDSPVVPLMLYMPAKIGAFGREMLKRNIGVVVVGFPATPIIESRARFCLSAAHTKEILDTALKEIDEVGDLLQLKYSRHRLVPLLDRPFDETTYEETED

cryo-EM structure [1] = target: the molecule itself
cryo-EM structure [2] = target: the molecule itself; remark: listed apart in the source

B1: human SPTLC1 (natural protein)
chain: MATATEQWVLVEMVQALYEAPAYHLILEGILILWIIRLLFSKTYKLQERSDLTVKEKEELIEEWQPEPLVPPVPKDHPALNYNIVSGPPSHKTVVNGKECINFASFNFLGLLDNPRVKAAALASLKKYGVGTCGPRGFYGTFDVHLDLEDRLAKFMKTEEAIIYSYGFATIASAIPAYSKRGDIVFVDRAACFAIQKGLQASRSDIKLFKHNDMADLERLLKEQEIEDQKNPRKARVTRRFIVVEGLYMNTGTICPLPELVKLKYKYKARIFLEESLSFGVLGEHGRGVTEHYGINIDDIDLISANMENALASIGGFCCGRSFVIDHQRLSGQGYCFSASLPPLLAAAAIEALNIMEENPGIFAVLKEKCGQIHKALQGISGLKVVGESLSPAFHLQLEESTGSREQDVRLLQEIVDQCMNRSIALTQARYLEKEEKCLPPPSIRVVVTVEQTEEELERAASTIKEVAQAVLL
Human SPTLC2
  stoichiometry N: 1
cryo-EM structure [1]
  binding result: binds

B2: human SPT complex (SPTLC1-SPTLC2-ssSPTa), one protomer (complex)
chain 1: MATATEQWVLVEMVQALYEAPAYHLILEGILILWIIRLLFSKTYKLQERSDLTVKEKEELIEEWQPEPLVPPVPKDHPALNYNIVSGPPSHKTVVNGKECINFASFNFLGLLDNPRVKAAALASLKKYGVGTCGPRGFYGTFDVHLDLEDRLAKFMKTEEAIIYSYGFATIASAIPAYSKRGDIVFVDRAACFAIQKGLQASRSDIKLFKHNDMADLERLLKEQEIEDQKNPRKARVTRRFIVVEGLYMNTGTICPLPELVKLKYKYKARIFLEESLSFGVLGEHGRGVTEHYGINIDDIDLISANMENALASIGGFCCGRSFVIDHQRLSGQGYCFSASLPPLLAAAAIEALNIMEENPGIFAVLKEKCGQIHKALQGISGLKVVGESLSPAFHLQLEESTGSREQDVRLLQEIVDQCMNRSIALTQARYLEKEEKCLPPPSIRVVVTVEQTEEELERAASTIKEVAQAVLL
chain 2: MRPEPGGCCCRRTVRANGCVANGEVRNGYVRSSAAAAAAAAAGQIHHVTQNGGLYKRPFNEAFEETPMLVAVLTYVGYGVLTLFGYLRDFLRYWRIEKCHHATEREEQKDFVSLYQDFENFYTRNLYMRIRDNWNRPICSVPGARVDIMERQSHDYNWSFKYTGNIIKGVINMGSYNYLGFARNTGSCQEAAAKVLEEYGAGVCSTRQEIGNLDKHEELEELVARFLGVEAAMAYGMGFATNSMNIPALVGKGCLILSDELNHASLVLGARLSGATIRIFKHNNMQSLEKLLKDAIVYGQPRTRRPWKKILILVEGIYSMEGSIVRLPEVIALKKKYKAYLYLDEAHSIGALGPTGRGVVEYFGLDPEDVDVMMGTFTKSFGASGGYIGGKKELIDYLRTHSHSAVYATSLSPPVVEQIITSMKCIMGQDGTSLGKECVQQLAENTRYFRRRLKEMGFIIYGNEDSPVVPLMLYMPAKIGAFGREMLKRNIGVVVVGFPATPIIESRARFCLSAAHTKEILDTALKEIDEVGDLLQLKYSRHRLVPLLDRPFDETTYEETED
chain 3: MAGMALARAWKQMSWFYYQYLLVTALYMLEPWERTVFNSMLVSIVGMALYTGYVFMPQHIMAILHYFEIVQ
modifications: pyridoxal 5'-phosphate (PLP) in aldimine linkage to Lys379
cryo-EM structure [2]
  stoichiometry N: 2

B3: human SPT-ORMDL3 complex (SPTLC1-SPTLC2-ssSPTa-ORMDL3), one protomer (complex)
chain 1: MATATEQWVLVEMVQALYEAPAYHLILEGILILWIIRLLFSKTYKLQERSDLTVKEKEELIEEWQPEPLVPPVPKDHPALNYNIVSGPPSHKTVVNGKECINFASFNFLGLLDNPRVKAAALASLKKYGVGTCGPRGFYGTFDVHLDLEDRLAKFMKTEEAIIYSYGFATIASAIPAYSKRGDIVFVDRAACFAIQKGLQASRSDIKLFKHNDMADLERLLKEQEIEDQKNPRKARVTRRFIVVEGLYMNTGTICPLPELVKLKYKYKARIFLEESLSFGVLGEHGRGVTEHYGINIDDIDLISANMENALASIGGFCCGRSFVIDHQRLSGQGYCFSASLPPLLAAAAIEALNIMEENPGIFAVLKEKCGQIHKALQGISGLKVVGESLSPAFHLQLEESTGSREQDVRLLQEIVDQCMNRSIALTQARYLEKEEKCLPPPSIRVVVTVEQTEEELERAASTIKEVAQAVLL
chain 2: MRPEPGGCCCRRTVRANGCVANGEVRNGYVRSSAAAAAAAAAGQIHHVTQNGGLYKRPFNEAFEETPMLVAVLTYVGYGVLTLFGYLRDFLRYWRIEKCHHATEREEQKDFVSLYQDFENFYTRNLYMRIRDNWNRPICSVPGARVDIMERQSHDYNWSFKYTGNIIKGVINMGSYNYLGFARNTGSCQEAAAKVLEEYGAGVCSTRQEIGNLDKHEELEELVARFLGVEAAMAYGMGFATNSMNIPALVGKGCLILSDELNHASLVLGARLSGATIRIFKHNNMQSLEKLLKDAIVYGQPRTRRPWKKILILVEGIYSMEGSIVRLPEVIALKKKYKAYLYLDEAHSIGALGPTGRGVVEYFGLDPEDVDVMMGTFTKSFGASGGYIGGKKELIDYLRTHSHSAVYATSLSPPVVEQIITSMKCIMGQDGTSLGKECVQQLAENTRYFRRRLKEMGFIIYGNEDSPVVPLMLYMPAKIGAFGREMLKRNIGVVVVGFPATPIIESRARFCLSAAHTKEILDTALKEIDEVGDLLQLKYSRHRLVPLLDRPFDETTYEETED
chain 3: MAGMALARAWKQMSWFYYQYLLVTALYMLEPWERTVFNSMLVSIVGMALYTGYVFMPQHIMAILHYFEIVQ
chain 4: MNVGTAHSEVNPNTRVMNSRGIWLSYVLAIGLLHIVLLSIPFVSVPVVWTLTNLIHNMGMYIFLHTVKGTPFETPDQGKARLLTHWEQMDYGVQFTASRKFLTITPIVLYFLTSFYTKYDQIHFVLNTVSLMSVLIPKLPQLHGVRIFGINKY
modifications: pyridoxal 5'-phosphate (PLP) in aldimine linkage to Lys379
cryo-EM structure [1]
  stoichiometry N: 2

B4: human ssSPTa (natural protein)
chain: MAGMALARAWKQMSWFYYQYLLVTALYMLEPWERTVFNSMLVSIVGMALYTGYVFMPQHIMAILHYFEIVQ
Human SPTLC2
  stoichiometry N: 1
